Test results reported in patent US20230121197A1, “ANTIBODIES SPECIFICALLY BINDING THE CARBOXYMETHYLATED CATALYTIC SUBUNIT OF PROTEIN PHOSPHATASE 2A” (Medizinische Universität Wien, priority 2020, published 2023).

T1: C-terminal PP2Ac peptide Y307F, CGEPHVTRRTPDFFL (15-mer)
T1 construct: Non-carboxymethylated; Phe in place of Tyr307; Crosslinked to BSA in the Western blot; free or linked to BSA in the ELISA
T1 peptide: CGEPHVTRRTPDFFL


Experiments:
[1] = biological target: T1, C-terminal PP2Ac peptide Y307F, …; experiment: Western blot of 100 ng BSA crosslinked with peptide
Protocol: 100 ng of BSA crosslinked with peptides (L309: […] (SEQ ID NO:49), Y307F: […] (SEQ ID NO.50), pY307: […]pYFL (SEQ ID NO:51) or meL309: […]-CH₃) (SEQ ID NO:49) was separated by 10% SDS-PAGE and transferred to nitrocellulose membrane (0.2 μm, GE Healthcare). […] The membranes were blocked in 3% non-fatty dry milk (NFDM) in TBS-Tween for 1 h at RT and incubated with single clone hybridoma cell culture supernatant, clone 7C10-C5 diluted 1:100 in 0.5% NFDM in TBS-T (7C10 X63), recombinant single chain variable fragment of antibody 7C10-C5, undiluted (7C10 scFvs), recombinant bivalent single chain variable fragment 7C10-C5, undiluted (7C10 bi-scFvs) or single clone hybridoma cell culture supernatant, clone 1D7 (binding to non-carboxymethylated PP2Ac) 1:100 in 0.5% NFDM in TBS-T o/n at 4° C. After washing 3×5 min in TBS-T, blots incubated with recombinant antibodies were incubated with mouse anti-HA monoclonal antibody 16B12 (recognizing the hemagglutinin (HA) tag on the recombinant antibody), 1:10000 in 0.5% NFDM in TBS-T 2 h at room temperature. After washing 3×5 min in TBS-T, incubation with anti-mouse-HRP coupled secondary antibody for 1 h at RT and 3×10 min washes in TBS-T was performed. ECL was performed with GE Healthcare ECL reagents (RPN2106) mixed 1:3 with Clarity™ Western ECL Substrate, 500 ml #1705061 (Biorad). Signals were detected by exposure of X-ray films. […]

[2] = biological target: PP2Ac C-terminal peptides (L309, meL309, amL309, pT304, pY307) (Homo sapiens, UniProt P67775); experiment: ELISA with PP2Ac C-terminal undecapeptides; format: binding
Protocol: 7C10-C5 was tested for its specificity to the unmodified, methylated or amidated carboxyl group of Leu^309 at the carboxy-terminus of PP2Ac by ELISA with 3 different undecapeptides (11-mers) (FIG. 4). Methylated and amidated peptides were compared because at physiological pH the α-carboxyl-group of Leu^309 is negatively charged and either the methylation or amidation of the α-carboxyl-group neutralizes its negative charge. This allowed the inventors to discriminate between a specificity for the amidated charge-neutralized PP2Ac C-terminus or the carboxymethylated charge-neutralized PP2Ac C-terminus.
Specifically, flat-bottom Nunc-Immuno Medisorp 96-well ELISA plates (Thermo; 467320) were coated o/n at 4° C. with 50 μl of either a peptide of the sequence ac-HVTRRTPDYFL-OH (L309; unmodified) (SEQ ID NO:18) at a concentration of 2 μg/ml, a peptide of the sequence ac-HVTRRTPDYFL-CH3 (meL309; methylated) (SEQ ID NO:18) at a concentration of 2 μg/ml in TBS (137 mM NaCl (AppliChem, #131659, 2.7 mM KCl (AppliChem, #131494), 24.8 mM Tris (AppliChem, #A1086), pH 7.4 with HCl) or a peptide of the sequence ac-HVTRRTPDYFL-NH2 (amL309; amidated) (SEQ ID NO:18) at a concentration of 2 μg/ml in TBS. Of note, the “ac-” in the peptides described here and in other Examples refers to an acetylated N-terminus. Said acetylation neutralizes the positive charge at the N-terminus, and the free charged N-terminus is thereby removed.
Then, the wells were washed once with TBS, blocked with 200 μl of 2% bovine serum albumin (BSA) (Sigma, A9647) in TBS for 1 hour at RT and washed again once with TBS. […] Bound antibodies were detected colorimetrically by addition of 50 μl of 33 μg/ml […] (TMB) (Sigma, T2885) in 0.1 M sodium acetate pH 6.0 and 0.01% H2O2 (Sigma, H1009). The colorimetric reaction was stopped after 10 min by addition of 50 μl 0.5 M H2SO4, and measured at 450 nm and 560 nm with a Perkin Elmer VICTOR® Nivo™ microplate reader. The results from 560 nm read were subtracted from the 450 nm read. […]

Molecule | binding result [1] | effect of concurrent Tyr307 phosphorylation on binding to carboxymethylated PP2Ac C-terminus [2] | detection difference carboxymethylated+Thr304 phosphorylated versus carboxymethylated peptide ([2]; at lower peptide concentrations (dilution series 8 μg/ml to 7.8125 ng/ml)) | signal intensity α-carboxymethylated PP2Ac peptide when Thr304 is phosphorylated versus not phosphorylated ([2]; peptides at 2 μg/ml)
7C10-C5 monoclonal antibody (antibody, V domains shown, Used as hybridoma culture supernatant (ELISA, Western blot, IHC) or at 50 µg/mL (SPR); also called 7C10 X63; clone 7C10-C5) VH: DVQLQESGPGLVKPSQSLSLTCSVTGYSITSGYYWNWIRQFPGNKLEWMGYISYDGSNNYNPSLKNRISITRDTSKNQFFLKLNSVTTEDTATYYCAGRFAYWGQGTLVTVSA VL: DVLMTQTPLSLPVSLGDQASISCRSSQSIVHSNGNTYLEWYLQKPGQSPKLLIYKVSNRFSGVPDRFSGSGSGTDFTLKINRVEAEDLGVYYCFQGSHVPWTFGGGTKLEIK | no binding (tested: supernatant 1:100) |  |  | 
7C10-C5: α-carboxymethylation specific mouse monoclonal IgG1 antibody from single clone hybridoma 7C10-C5 (DSM ACC3350) (antibody, Amino acid sequence of the recombinant 7C10-C5 heavy chain; Amino acid sequence of the recombinant 7C10-C5 light chain) heavy: MYRMQLLSCIALSLALVTNSDVQLQESGPGLVKPSQSLSLTCSVTGYSITSGYYWNWIRQFPGNKLEWMGYISYDGSNNYNPSLKNRISITRDTSKNQFFLKLNSVTTEDTATYYCAGRFAYWGQGTLVTVSAAKTTAPSVYPLAPVCGDTTGSSVTLGCLVKGYFPEPVTLTWNSGSLSSGVHTFPAVLQSDLYTLSSSVTVTSSTWPSQSITCNVAHPASSTKVDKKIEPRGPTIKPCPPCKCPAPNLLGGPSVFIFPPKIKDVLMISLSPIVTCVVVDVSEDDPDVQISWFVNNVEVHTAQTQTHREDYNSTLRVVSALPIQHQDWMSGKEFKCKVNNKDLPAPIERTISKPKGSVRAPQVYVLPPPEEEMTKKQVTLTCMVTDFMPEDIYVEWTNNGKTELNYKNTEPVLDSDGSYFMYSKLRVEKKNWVERNSYSCSVVHEGLHNHHTTKSFSRTPGK light: MDMRVPAQLLGLLLLWLSGARCDVLMTQTPLSLPVSLGDQASISCRSSQSIVHSNGNTYLEWYLQKPGQSPKLLIYKVSNRFSGVPDRFSGSGSGTDFTLKINRVEAEDLGVYYCFQGSHVPWTFGGGTKLEIKADAAPTVSIFPPSSEQLTSGGASVVCFLNNFYPKDINVKWKIDGSERQNGVLNSWTDQDSKDSTYSMSSTLTLTKDEYERHNSYTCEATHKTSTSPIVKSFNRNEC |  | not significantly altered | 4 fold | 1.6 fold
